Assay [1] concerns the target T1, recombinant protein mouse Dsg1-His (mouse, UniProt Q61495 50-564, limits assumed).
T1 construct: not shown: His tag
T1 sequence (looked up): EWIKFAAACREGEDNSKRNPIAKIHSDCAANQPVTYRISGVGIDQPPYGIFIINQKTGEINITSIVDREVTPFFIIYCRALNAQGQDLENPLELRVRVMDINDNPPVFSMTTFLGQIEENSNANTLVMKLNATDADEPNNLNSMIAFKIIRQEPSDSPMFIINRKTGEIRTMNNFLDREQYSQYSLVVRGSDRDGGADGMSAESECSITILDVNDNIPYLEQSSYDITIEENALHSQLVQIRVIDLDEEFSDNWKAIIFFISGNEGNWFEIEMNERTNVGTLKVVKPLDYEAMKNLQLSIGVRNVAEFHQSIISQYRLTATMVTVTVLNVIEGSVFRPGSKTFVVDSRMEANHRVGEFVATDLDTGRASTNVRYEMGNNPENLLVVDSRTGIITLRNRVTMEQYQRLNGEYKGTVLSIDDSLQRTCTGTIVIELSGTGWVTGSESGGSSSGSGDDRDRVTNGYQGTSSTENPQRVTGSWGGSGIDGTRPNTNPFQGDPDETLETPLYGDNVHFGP
The assay can be described thus: ELISA on recombinant mouse Dsg1-His. The text has this:
The baculovirus vectors, pEVmod-Dsg3-His and pEVmod-Dsg1-His, pEVmod-mouse Dsg3-His and pEVmod-mouse Dsg1 -His, that were constructed according to the method as described previously (J. Immunol. 159, 2010-2017, 1997) were used. These recombinant baculoviruses were infected to insect cells, High Five (Invitrogen Corporation), then the recombinant protein human Dsg3-His and Dsg1-His, recombinant protein mouse Dsg3-His and Dsg1-His were collected from the culture media, respectively. In addition, purification of these recombinant proteins was conducted using Ni-NTA column. These purified recombinant proteins were coated on ELISA (Enzyme Linked Immunosorbent Assay) plates, respectively, 50 μl each of the culture supernatant of the anti-Dsg3 monoclonal antibody-producing hybridoma was added to each well, and ELISA was practiced according to the method as previously described (J Clin Invest 105, 625-631, 2000). PV mouse model 1 serum with moderate degree of antibody titer was selected as a positive control, and 1 serum of normal mouse serum was selected as a negative control. Absorbance was determined at wavelength 450 nm (Bio-rad, Hercules, Calif. USA), and the index was shown by the following formula. Index={OD(specimen)−OD(negative control)}/{OD(positive control)−OD(negative control)}×100 A-2 (Living Cell Staining using Culture Mouse Keratinocyte PAM 212)

Another assay addresses T2, Dsg3-M2 (human, UniProt P32926 50-615, T31N; K33Q; I34V).
T2 construct: extracellular domain; also called point-mutated human Dsg3 molecule M2; not shown: His tag of vector pEVmod-His
T2 sequence (looked up): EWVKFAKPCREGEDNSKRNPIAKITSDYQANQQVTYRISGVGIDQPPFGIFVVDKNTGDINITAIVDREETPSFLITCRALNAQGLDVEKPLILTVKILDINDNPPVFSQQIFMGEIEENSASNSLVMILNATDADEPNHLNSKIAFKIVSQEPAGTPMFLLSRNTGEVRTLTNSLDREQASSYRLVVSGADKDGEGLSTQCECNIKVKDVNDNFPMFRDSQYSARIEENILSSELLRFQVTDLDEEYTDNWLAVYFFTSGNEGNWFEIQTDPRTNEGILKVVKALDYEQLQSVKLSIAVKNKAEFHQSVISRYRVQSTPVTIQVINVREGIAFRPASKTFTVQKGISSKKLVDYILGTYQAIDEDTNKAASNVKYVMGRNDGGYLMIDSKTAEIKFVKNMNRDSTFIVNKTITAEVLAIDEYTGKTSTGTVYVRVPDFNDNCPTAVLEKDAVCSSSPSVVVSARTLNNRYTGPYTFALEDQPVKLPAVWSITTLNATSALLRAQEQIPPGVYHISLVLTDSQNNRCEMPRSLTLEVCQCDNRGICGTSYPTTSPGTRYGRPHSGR
The assay can be described thus: immunoprecipitation of point-mutated molecules (FIG. 5).

The next assay deals with T3, Dsg3-M7 (human, UniProt P32926 50-615, V3I; K7A; P8A).
T3 construct: extracellular domain; also called hDsg3-M7
T3 sequence (looked up): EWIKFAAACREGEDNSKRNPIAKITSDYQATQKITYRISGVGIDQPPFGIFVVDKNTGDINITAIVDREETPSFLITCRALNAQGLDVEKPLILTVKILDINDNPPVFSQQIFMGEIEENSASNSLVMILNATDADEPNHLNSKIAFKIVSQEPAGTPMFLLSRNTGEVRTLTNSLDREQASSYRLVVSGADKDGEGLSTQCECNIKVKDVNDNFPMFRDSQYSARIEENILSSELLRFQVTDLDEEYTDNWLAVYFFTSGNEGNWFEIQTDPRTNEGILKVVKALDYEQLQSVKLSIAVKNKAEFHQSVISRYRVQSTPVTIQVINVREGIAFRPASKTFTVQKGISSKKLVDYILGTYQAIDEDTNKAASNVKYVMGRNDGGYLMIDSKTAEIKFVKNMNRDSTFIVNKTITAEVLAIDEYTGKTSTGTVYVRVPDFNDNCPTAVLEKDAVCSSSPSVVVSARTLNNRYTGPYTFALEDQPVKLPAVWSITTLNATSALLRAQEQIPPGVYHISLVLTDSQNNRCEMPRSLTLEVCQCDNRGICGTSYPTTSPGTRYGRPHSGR
The assay is described as above.

Another assay has as its target T4, Dsg1-M1-2 (human, UniProt Q02413 50-545, H25T; C28Y; A29Q; N31T; Q33K; V34I).
T4 construct: extracellular domain; Dsg1-specific residues changed to the Dsg3-specific ones; also called hDsg1-M1-2
T4 sequence (looked up): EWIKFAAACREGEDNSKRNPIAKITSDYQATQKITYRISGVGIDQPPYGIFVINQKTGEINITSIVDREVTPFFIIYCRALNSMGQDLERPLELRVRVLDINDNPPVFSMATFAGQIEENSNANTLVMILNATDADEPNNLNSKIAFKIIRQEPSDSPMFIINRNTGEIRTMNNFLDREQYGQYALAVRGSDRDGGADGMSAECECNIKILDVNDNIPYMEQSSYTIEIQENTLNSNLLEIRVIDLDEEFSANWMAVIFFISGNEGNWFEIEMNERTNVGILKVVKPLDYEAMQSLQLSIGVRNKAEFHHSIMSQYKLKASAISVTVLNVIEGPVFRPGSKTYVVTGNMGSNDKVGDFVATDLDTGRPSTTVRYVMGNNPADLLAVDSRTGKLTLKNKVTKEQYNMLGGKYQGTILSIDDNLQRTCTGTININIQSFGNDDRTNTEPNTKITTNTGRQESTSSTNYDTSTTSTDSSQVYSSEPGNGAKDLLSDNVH
The description is as above.

B1: anti-Dsg3 monoclonal antibody AK23 (antibody, mouse IgG1, V domains shown)
VH: QVQLQQSGTELVKPGASVKLSCKSSGYTFTSYWINWVKQRPGQGLEWIGNINPSNGGINYNEKFKSKATLTVDKSSSTAYMQLKSLTSEDSAVYYCARGGYDGYPWGQGTTVTVS
VL: DIQMTQSPKFLLVSAGDRVTITCKASQSVSYDVAWYQQKPGQSPKLLISYASNRYTGVPDRFTGSGYGSDFTFTISTVQTEDLAVYFCQQDYSSPWTFGGGTKLELKR
notes: Mouse IgG1 kappa hybridoma antibody
B1: the binding result is on record as “no binding” in assay [1], “binds” in the assay with Dsg3-M2, “no binding” with Dsg3-M7 and “no binding” with Dsg1-M1-2.
